# Results: the supplement of paper PMC9170038
# Test system: MS2 coat protein
# Assay: apparent KD of MS2 coat protein; designed switch direction (-1 OFF switch, 1 ON switch): -1; higher = weaker reporter binding
# Outline: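 Designed RNA switches sharing common flanks were transcribed on Illumina chips by stalled E. coli RNA polymerase. They were titrated with SNAP-549-labelled MS2 coat protein, from 0.7 or 1.5 nM doubling to 3 µM, in Tris-HCl pH 7.5 buffer with KCl, MgCl2, BSA, DTT, tRNA and Tween-20. Titrations ran without input, with 200 uM small-molecule ligand, or with an oligonucleotide input. The apparent KD of each design is the median over its clusters, after curve-fitting of normalised cluster fluorescence.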
# [1] = input ligand: microRNA oligo, concentration not stated
# [2] = Eterna round: R95, input ligand: microRNA oligo, concentration not stated
# [3] = Eterna round: R95, input ligand: FMN 200 uM
# [4] = Eterna round: R95, input ligand: none
sequence,measurement,setting,value
"ACAUGUAUUGCAGGAUAUGGGACACAUGAGGAUCACCCAUGUGACCAUAUGUAAUGCCACGGGUCUCAGAAGGGUAUGUACAUG [Ex NG2 #44] (Eterna round: R96, puzzle: Exclusion NG 2)",apparent KD of MS2 coat protein,input ligand: FMN 200 uM,12.8 nM
same,apparent KD of MS2 coat protein,[1],10.3 nM
same,apparent KD of MS2 coat protein,input ligand: none,14.1 nM
"ACAUGUAUUGCAGGAUAUGGGACACAUGAGGAUCACCCAUGUGACCAUAUGUAAUGCUAAGAGUCUCAGAAGGGUAUGUACAUG [Ex NG2 #45] (Eterna round: R96, puzzle: Exclusion NG 2)",apparent KD of MS2 coat protein,input ligand: FMN 200 uM,10.7 nM
same,apparent KD of MS2 coat protein,[1],8.59 nM
same,apparent KD of MS2 coat protein,input ligand: none,11.4 nM
"ACAUGUCAUCGAGGAUAUUGGACACAUGAGGAUCACCCAUGUACUCGGAGGCUCUACCAUGAGUUCGAGAAGGCGAUGUACAUG [Ex NG2 #76] (Eterna round: R96, puzzle: Exclusion NG 2)",apparent KD of MS2 coat protein,input ligand: FMN 200 uM,651 nM
same,apparent KD of MS2 coat protein,[1],316 nM
same,apparent KD of MS2 coat protein,input ligand: none,365 nM
"ACAUGUCAUCGAGGAUAUUGUACACAUGAGGAUCACCCAUGUACUCGGUUGCUCUAGCAUGCGUUCGAGAAGGCGAUGUACAUU [Ex NG2 #98] (Eterna round: R96, puzzle: Exclusion NG 2)",apparent KD of MS2 coat protein,input ligand: FMN 200 uM,52 nM
same,apparent KD of MS2 coat protein,[1],88.8 nM
same,apparent KD of MS2 coat protein,input ligand: none,144 nM
"ACAUGUCAUCGAGGAUAUUGUACACAUGAGGAUCACCCAUGUAUUCGGUUGCUCUCGCGUGAGUUCGAGAAGGCGAUGUACAUU [Ex NG2 #82] (Eterna round: R96, puzzle: Exclusion NG 2)",apparent KD of MS2 coat protein,input ligand: FMN 200 uM,105 nM
same,apparent KD of MS2 coat protein,[1],24.2 nM
same,apparent KD of MS2 coat protein,input ligand: none,29.3 nM
"ACAUGUCAUUGAGGAUAUUGCACACAUGAGGAUCACCCAUGUAUACGGAUGCUCUUCCGUGAGUUCGAGAAGGCGAUGUACAUU [Ex NG2 #90] (Eterna round: R96, puzzle: Exclusion NG 2)",apparent KD of MS2 coat protein,input ligand: FMN 200 uM,71.3 nM
same,apparent KD of MS2 coat protein,[1],38.6 nM
same,apparent KD of MS2 coat protein,input ligand: none,60.7 nM
"ACAUGUCAUUGAGGAUAUUGCACACAUGAGGAUCACCCAUGUAUACGGUUGCUCUUACGUGAGUUCGAGAAGGCGAUGUACAUU [Ex NG2 #88] (Eterna round: R96, puzzle: Exclusion NG 2)",apparent KD of MS2 coat protein,input ligand: FMN 200 uM,153 nM
same,apparent KD of MS2 coat protein,[1],123 nM
same,apparent KD of MS2 coat protein,input ligand: none,181 nM
"ACAUGUCUUGUAGGAUAUAGUUGACAUGAGGAUCACCCAUGUUGAUUCAUGUCUAUGGAAACGGACUAGAAGGACGAGAAUAUG [Ex NG2 #17] (Eterna round: R96, puzzle: Exclusion NG 2)",apparent KD of MS2 coat protein,input ligand: FMN 200 uM,50.5 nM
same,apparent KD of MS2 coat protein,[1],25.3 nM
same,apparent KD of MS2 coat protein,input ligand: none,25.9 nM
"ACAUGUUAUCCAUGAUAUCACAUGAGGAUCACCCAUGUUAUGGCGAUUUUGAGGUGUAAGUUUGUUGCUCGUCUUAU [JR_STOV1_Sub059] (Eterna round: R97, puzzle: Sensor, turn-off variant 1)",apparent KD of MS2 coat protein,input ligand: FMN 200 uM,54.5 nM
same,apparent KD of MS2 coat protein,input ligand: none,65.3 nM
"ACAUGUUGCGCAGGAUAUGAGACACAUGAGGAUCACCCAUGUGGCUACAUGUCAUACCAAGCGUCUCAGAAGGGUGUGAACAUG [Ex NG2 #34] (Eterna round: R96, puzzle: Exclusion NG 2)",apparent KD of MS2 coat protein,input ligand: FMN 200 uM,18.7 nM
same,apparent KD of MS2 coat protein,[1],11.7 nM
same,apparent KD of MS2 coat protein,input ligand: none,18.1 nM
"ACAUUACAUGAGGAUCACCCAUGUGAGGAUAUGGAGCGAGAGUGUCCUGUCGCGUACACCAGAAGGCGCGGGUG [1st #50] (Eterna round: R97, puzzle: Exclusion 1)",apparent KD of MS2 coat protein,input ligand: FMN 200 uM,235 nM
same,apparent KD of MS2 coat protein,input ligand: none,80.1 nM
ACAUUGUGAGGAUAUCCGAAGAAGGUCCGGAAGGUUCGGGUGGAGAAGGCACAUGAGGAUCACCCAUGUGUGGG [Excls4-VIII] (puzzle: Exclusion 4),apparent KD of MS2 coat protein,[2],39.3 nM
"ACCAAGUCAGGAUAUCCAGUUAGCCUUCGAGGCUGGGAAUAGGAGAAGGGACAUGAGGAUCACCCAUGUGGGCC [Eternabot (L2) Solution 78] (Eterna round: R97, puzzle: Exclusion 4)",apparent KD of MS2 coat protein,input ligand: FMN 200 uM,215 nM
same,apparent KD of MS2 coat protein,input ligand: none,54.4 nM
"ACCAUGUUAGGAUAUGCGUGGCAUAGACCGGUCUAUCCGCGGUAGAAGGGACAUGAGGAUCACCCAUGUGCGAG [Eternabot (L2) Solution 85] (Eterna round: R97, puzzle: Exclusion 4)",apparent KD of MS2 coat protein,input ligand: FMN 200 uM,41.5 nM
same,apparent KD of MS2 coat protein,input ligand: none,32.3 nM
ACCCAACAUGAGGAUCACCCAUGUCAGGAUAUCCAAGCGAAAGCAAAAGCGAAAGCAAGGAGAAGGGACAGAGG [ChP 04-04-2015 #6] (puzzle: Exclusion 1),apparent KD of MS2 coat protein,[3],308 nM
same,apparent KD of MS2 coat protein,[2],90 nM
same,apparent KD of MS2 coat protein,[4],180 nM
ACCCAACAUGAGGAUCACCCAUGUCAGGAUAUCCUCGGGAAACCAAAAGAGGAGCCGAGGAGAAGGGACAGAGG [ChP 04-04-2015 #5] (puzzle: Exclusion 1),apparent KD of MS2 coat protein,[3],124 nM
same,apparent KD of MS2 coat protein,[2],233 nM
same,apparent KD of MS2 coat protein,[4],227 nM
"ACCCUAAUCGUGAGGAUAUACUGCGUCAAAGACGGGUAGAAGGUACAUGAGGAUCACCCAUGUUUGGCUACUAA [Eternabot (L2) Solution 48] (Eterna round: R97, puzzle: Brourd's mod of Exclusion 4)",apparent KD of MS2 coat protein,input ligand: FMN 200 uM,28.3 nM
same,apparent KD of MS2 coat protein,input ligand: none,27.7 nM
"ACCCUCCCGCAGGAUAUAAUAAAGUGGUACUUAUUAGAAGGGCGUACAUGAGGAUCACCCAUGUCGUGACGUGC [Eternabot (L1) Solution 5] (Eterna round: R97, puzzle: Exclusion 6)",apparent KD of MS2 coat protein,input ligand: FMN 200 uM,25.5 nM
same,apparent KD of MS2 coat protein,input ligand: none,25.9 nM
ACCGAACAUGAGGAUCACCCAUGUGAGGAUAUCCCGAGAUUAAAUGCCGCAAGAAGGCGGAGAAGGCGCAUGGG [Ditiesre] (puzzle: Exclusion 1),apparent KD of MS2 coat protein,[3],45.2 nM
same,apparent KD of MS2 coat protein,[2],23.7 nM
same,apparent KD of MS2 coat protein,[4],31.3 nM
"ACCUACCAGCUAGGAUAUGCAGUACAGUAAAAUGUAGAAGGAGCACGAUCCAGACAUGAGGAUCACCCAUGUGGGCGGUAGGCA [Errage] (Eterna round: R96, puzzle: Exclusion NG 1)",apparent KD of MS2 coat protein,input ligand: FMN 200 uM,14.4 nM
same,apparent KD of MS2 coat protein,[1],14 nM
same,apparent KD of MS2 coat protein,input ligand: none,16.9 nM
ACCUCACAUGAGGAUCACCCAUGUCAGGAUAUACAAACCGUGUAAAGACACGGUCGUAGUAGAAGGGACUAUGG [Telalebees] (puzzle: Exclusion 1),apparent KD of MS2 coat protein,[2],59.1 nM
ACCUCACAUGAGGAUCACCCAUGUCAGGAUAUACAAGAAAAUAACCGGAAAGACCGGAGUAGAAGGGACAUAAG [Arisus] (puzzle: Exclusion 1),apparent KD of MS2 coat protein,[3],30.3 nM
same,apparent KD of MS2 coat protein,[2],16.2 nM
same,apparent KD of MS2 coat protein,[4],17.1 nM
"ACCUCACAUGAGGAUCACCCAUGUCAGGAUAUCUUUUAAAACGCGAAUCGCGUCGCUGAGAGAAGGGACAUUAA [EX1 #21] (Eterna round: R97, puzzle: Exclusion 1)",apparent KD of MS2 coat protein,input ligand: FMN 200 uM,99.6 nM
same,apparent KD of MS2 coat protein,input ligand: none,39.1 nM
ACCUCACAUGAGGAUCACCCAUGUCAGGAUAUGUACCUAGCCAAAACAAAGGCCAGAAGCAGAAGGGACUGCGG [Ralerezara] (puzzle: Exclusion 1),apparent KD of MS2 coat protein,[3],24.1 nM
same,apparent KD of MS2 coat protein,[2],53.4 nM
same,apparent KD of MS2 coat protein,[4],44.6 nM
ACCUCACAUGAGGAUCACCCAUGUUAGGAUAUCUCGACACUCCGCGGGCGGUAGCGUCAGAGAAGGAACGUGCU [Iszaxeza] (puzzle: Exclusion 1),apparent KD of MS2 coat protein,[2],23.1 nM
ACCUCACAUGAGGAUCACCCAUGUUAGGAUAUCUCGGCGCCCUGUAGGCAGUAGCGCCAGAGAAGGAACGUGCA [Gearorso] (puzzle: Exclusion 1),apparent KD of MS2 coat protein,[2],19.8 nM
"ACCUCACUUGAGGAUCACCCAAGUCAGGAUAUACUCGUUUGCCGCACGACGCGGCAUUGUAGAAGGGACGGGUU [Arveatat] (Eterna round: R97, puzzle: Exclusion 1)",apparent KD of MS2 coat protein,input ligand: FMN 200 uM,35.1 nM
same,apparent KD of MS2 coat protein,input ligand: none,17.9 nM
"ACCUCUGCUGAGGAUAUCCUUGCGGAAGAAGGAGGAGAAGGCAGAACAUGAGGAUCACCCAUGUGGGAACAACG [Eternabot (Original) Solution 37] (Eterna round: R97, puzzle: Exclusion 6)",apparent KD of MS2 coat protein,input ligand: FMN 200 uM,182 nM
same,apparent KD of MS2 coat protein,input ligand: none,83.8 nM
ACCUUACAUGAGGAUCACCCAUGUCAGGAUAUCUCGGGCGGCUGAGGACCAGCCACCCAGAGAAGGGACGAGGA [Qumaraanan] (puzzle: Exclusion 1),apparent KD of MS2 coat protein,[3],15 nM
same,apparent KD of MS2 coat protein,[2],11.9 nM
same,apparent KD of MS2 coat protein,[4],15.7 nM
ACCUUACAUGAGGAUCACCCAUGUCAGGAUAUCUCGGGCGGCUGAGGACCAGCCGCCCAGAGAAGGGACGAGGA [Leleusarra] (puzzle: Exclusion 1),apparent KD of MS2 coat protein,[2],12.5 nM
"ACGAUGACCGAAAAGUGUCAACUGACAUGAGGAUCACCCAUGUAGGAUAUGGCUACGAAAAGUAGUCAGAAGGACAUGUCAUCA [Omei Exc(NG) 3 Av6] (Eterna round: R96, puzzle: Exclusion NG 3)",apparent KD of MS2 coat protein,input ligand: FMN 200 uM,17.6 nM
same,apparent KD of MS2 coat protein,[1],10.5 nM
same,apparent KD of MS2 coat protein,input ligand: none,15.4 nM
"ACGCAUUGCCAAAGGUAAUGCGUUACAUGAGGAUCACCCAUGUAGGAUAUGGUAGGCAAAGCUUACCAGAAGGACAUGAUAAUU [Mat - Exclusion NG 3 - Mod of JL - D7] (Eterna round: R96, puzzle: Exclusion NG 3)",apparent KD of MS2 coat protein,input ligand: FMN 200 uM,219 nM
same,apparent KD of MS2 coat protein,[1],40 nM
same,apparent KD of MS2 coat protein,input ligand: none,57 nM
"ACGCGUGAAGGAUAUACGCGGGCCCAAGCGGAUCACACCGCACAUGAGGAUCACCCAUGUAGAAGGUCGCAAAA [r4x2dt3] (Eterna round: R97, puzzle: Exclusion 2)",apparent KD of MS2 coat protein,input ligand: FMN 200 uM,33.4 nM
same,apparent KD of MS2 coat protein,input ligand: none,13.9 nM
"ACGCUGUGAGGAUAUACAUGAGGAUCACCCAUGUUAAGGAAGUCUUGGUUAAUUUGGAGUAGAAGGCGCUUAUU [JR_Ex3_Sub016] (Eterna round: R97, puzzle: Exclusion 3)",apparent KD of MS2 coat protein,input ligand: FMN 200 uM,31.5 nM
same,apparent KD of MS2 coat protein,input ligand: none,34.9 nM
ACGUUUUUUGAGGAUAUGCGAUAGUUUUAUAUCGUAGAAGGCGAUACAUGAGGAUCACCCAUGUUUAUGGGCAU [LRO-Ex6-20] (puzzle: Exclusion 6),apparent KD of MS2 coat protein,[2],155 nM
